The text below walks through data of patent US20230002478A1.

In the test the target is biotinylated D614G SARS-CoV-2 spike trimer (SARS-CoV-2) (UniProt P0DTC2). Nature of the test: AlphaLISA, inhibition of ACE2-muFc / biotinylated spike complex.

The substance “anti-RBD neutralizing monoclonal antibody (human IgG1) from Acro Biosystems (SAD-S35)” registered an IC50 of 1.84 nM.
